Measurements as given in article PMC7903523 (Nature, 2020).

Target: the molecule itself
Assay: cryo-EM structure

B1: human sterol O-acyltransferase 1 (ACAT1), full length, C-terminal Flag-tag (enzyme, UniProt P35610 1-550, looked up)
chain: MVGEEKMSLRNRLSKSRENPEEDEDQRNPAKESLETPSNGRIDIKQLIAKKIKLTAEAEELKPFFMKEVGSHFDDFVTNLIEKSASLDNGGCALTTFSVLEGEKNNHRAKDLRAPPEQGKIFIARRSLLDELLEVDHIRTIYHMFIALLILFILSTLVVDYIDEGRLVLEFSLLSYAFGKFPTVVWTWWIMFLSTFSVPYFLFQHWATGYSKSSHPLIRSLFHGFLFMIFQIGVLGFGPTYVVLAYTLPPASRFIIIFEQIRFVMKAHSFVRENVPRVLNSAKEKSSTVPIPTVNQYLYFLFAPTLIYRDSYPRNPTVRWGYVAMKFAQVFGCFFYVYYIFERLCAPLFRNIKQEPFSARVLVLCVFNSILPGVLILFLTFFAFLHCWLNAFAEMLRFGDRMFYKDWWNSTSYSNYYRTWNVVVHDWLYYYAYKDFLWFFSKRFKSAAMLAVFAVSAVVHEYALAVCLSFFYPVLFVLFMFFGMAFNFIVNDSRKKPIWNVLMWTSLFLGNGVLLCFYSQEWYARQHCPLKNPTFLDYVRPRSWTCRYVF
stoichiometry N: 4
